Measured values reported in patent US12460006B2, “Antibodies against integrin alpha 11 beta 1” (Momenta Pharmaceuticals, Inc., priority 2019, dated 2025).

T1: α11β1 expressed on the surface of CHO-K1 cells (Homo sapiens, UniProt Q9UKX5)
T1 construct: expressed in transfected cells; host or cells: CHO-K1
T1 sequence (Q9UKX5 23-1188): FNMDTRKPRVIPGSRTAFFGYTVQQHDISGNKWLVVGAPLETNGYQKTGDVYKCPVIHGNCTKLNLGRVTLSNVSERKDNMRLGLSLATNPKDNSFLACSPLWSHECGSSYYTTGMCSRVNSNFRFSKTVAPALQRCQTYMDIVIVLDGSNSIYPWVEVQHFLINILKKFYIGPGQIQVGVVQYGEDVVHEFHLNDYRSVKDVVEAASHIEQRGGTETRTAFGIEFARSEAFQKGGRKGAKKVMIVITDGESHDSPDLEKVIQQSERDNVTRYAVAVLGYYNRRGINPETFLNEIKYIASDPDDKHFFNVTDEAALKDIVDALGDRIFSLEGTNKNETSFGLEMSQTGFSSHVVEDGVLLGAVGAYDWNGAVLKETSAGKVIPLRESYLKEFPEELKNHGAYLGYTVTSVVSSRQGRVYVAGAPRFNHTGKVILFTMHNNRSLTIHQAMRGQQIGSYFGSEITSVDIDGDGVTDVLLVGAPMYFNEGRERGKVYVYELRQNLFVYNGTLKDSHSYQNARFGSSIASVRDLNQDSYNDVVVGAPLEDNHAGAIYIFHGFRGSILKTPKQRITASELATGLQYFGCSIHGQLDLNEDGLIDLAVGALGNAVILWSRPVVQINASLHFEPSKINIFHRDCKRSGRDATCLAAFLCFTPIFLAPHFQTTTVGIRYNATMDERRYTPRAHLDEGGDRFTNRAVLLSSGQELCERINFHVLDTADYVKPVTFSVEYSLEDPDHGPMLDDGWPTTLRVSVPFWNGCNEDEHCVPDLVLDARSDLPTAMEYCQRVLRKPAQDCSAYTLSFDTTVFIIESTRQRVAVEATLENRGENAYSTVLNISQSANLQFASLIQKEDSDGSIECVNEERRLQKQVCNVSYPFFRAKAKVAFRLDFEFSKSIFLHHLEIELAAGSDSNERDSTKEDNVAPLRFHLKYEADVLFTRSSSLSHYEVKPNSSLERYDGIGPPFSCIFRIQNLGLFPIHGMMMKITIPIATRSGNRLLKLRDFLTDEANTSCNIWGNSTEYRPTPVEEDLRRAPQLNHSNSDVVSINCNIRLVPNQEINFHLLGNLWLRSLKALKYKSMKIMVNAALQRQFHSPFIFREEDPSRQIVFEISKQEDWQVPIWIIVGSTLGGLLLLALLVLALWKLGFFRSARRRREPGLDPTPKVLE


Tests used:
human α11β1 = human α11β1 (Homo sapiens, UniProt Q9UKX5); experiment: ELISA binding to recombinant human α11β1; conditions: binding Yes/No
Outline: (§1)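 First, wells were coated overnight at 4° C with 0.25 μg/mL recombinant α11β1 from human or mouse. Next came BSA blocking and a range of antibody concentrations for 1 h at room temperature. Finally, biotin anti-IgG, streptavidin-HRP and TMB development gave the 450 nm signal.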

mouse α11β1 = mouse α11β1 (Mus musculus, UniProt P61622); experiment: ELISA binding to recombinant mouse α11β1; conditions: binding Yes/No
Outline: as §1

α1β1, α2β1 and/or α10β1 = experiment: Counter-screen for cross-reactivity to other collagen receptors; type: binding, human; conditions: cross-reactivity to α1β1, α2β1, α10β1
Outline: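 Cross-reactivity was checked by ELISA counter-screen on human α1β1, α2β1 and α10β1. Tested material was hybridoma clones from rats or mice immunized with α11β1, previously selected for binding to soluble human and mouse α11β1.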

[1] = target: T1, α11β1 expressed on the surface of CHO-K1 cells; experiment: FACS antibody binding to CHO-K1 cells expressing human α11; conditions: binding Yes/No
Outline: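 Wild-type or human α11-transfected CHO-K1 cells (endogenous β1) were incubated with antibody at varied concentrations for 30 min at 4° C, then secondary antibody (1:100) 30 min at 4° C. Cells were PFA-fixed and read by flow cytometry; binding EC50 estimated from FACS data.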

mouse α11β1, sequence (P61622 23-1141 limits assumed): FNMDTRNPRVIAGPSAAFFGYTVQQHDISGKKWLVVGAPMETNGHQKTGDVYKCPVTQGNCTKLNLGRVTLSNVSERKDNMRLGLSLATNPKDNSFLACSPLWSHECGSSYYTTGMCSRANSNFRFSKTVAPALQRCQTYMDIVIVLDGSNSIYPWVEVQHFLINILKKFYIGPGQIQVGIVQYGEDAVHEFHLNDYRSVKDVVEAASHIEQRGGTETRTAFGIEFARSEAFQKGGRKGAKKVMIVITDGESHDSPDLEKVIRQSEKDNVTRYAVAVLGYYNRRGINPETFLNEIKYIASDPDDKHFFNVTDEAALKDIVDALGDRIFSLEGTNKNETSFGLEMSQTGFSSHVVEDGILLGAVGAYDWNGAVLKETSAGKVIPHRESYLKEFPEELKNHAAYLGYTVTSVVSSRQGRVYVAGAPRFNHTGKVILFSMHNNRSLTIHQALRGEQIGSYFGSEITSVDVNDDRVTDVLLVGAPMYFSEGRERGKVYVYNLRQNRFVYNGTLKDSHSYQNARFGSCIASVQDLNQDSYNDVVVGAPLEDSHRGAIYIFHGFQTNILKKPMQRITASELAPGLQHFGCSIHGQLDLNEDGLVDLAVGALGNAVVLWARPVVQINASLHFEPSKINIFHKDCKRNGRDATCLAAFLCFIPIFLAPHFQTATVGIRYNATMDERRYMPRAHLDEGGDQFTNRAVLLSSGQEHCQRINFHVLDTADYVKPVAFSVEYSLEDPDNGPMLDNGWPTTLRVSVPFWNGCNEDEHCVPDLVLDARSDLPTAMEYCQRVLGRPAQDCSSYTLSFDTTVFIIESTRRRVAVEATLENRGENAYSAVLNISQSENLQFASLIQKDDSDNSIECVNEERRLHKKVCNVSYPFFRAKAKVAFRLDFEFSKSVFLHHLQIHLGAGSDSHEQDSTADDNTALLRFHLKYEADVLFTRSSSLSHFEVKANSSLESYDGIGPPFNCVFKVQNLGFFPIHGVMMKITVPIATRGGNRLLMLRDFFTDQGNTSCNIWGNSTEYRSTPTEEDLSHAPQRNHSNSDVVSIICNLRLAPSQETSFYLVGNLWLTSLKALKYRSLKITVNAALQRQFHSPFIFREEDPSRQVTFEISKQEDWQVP
mouse α11β1, sequence (P09055 21-728 partner limits assumed): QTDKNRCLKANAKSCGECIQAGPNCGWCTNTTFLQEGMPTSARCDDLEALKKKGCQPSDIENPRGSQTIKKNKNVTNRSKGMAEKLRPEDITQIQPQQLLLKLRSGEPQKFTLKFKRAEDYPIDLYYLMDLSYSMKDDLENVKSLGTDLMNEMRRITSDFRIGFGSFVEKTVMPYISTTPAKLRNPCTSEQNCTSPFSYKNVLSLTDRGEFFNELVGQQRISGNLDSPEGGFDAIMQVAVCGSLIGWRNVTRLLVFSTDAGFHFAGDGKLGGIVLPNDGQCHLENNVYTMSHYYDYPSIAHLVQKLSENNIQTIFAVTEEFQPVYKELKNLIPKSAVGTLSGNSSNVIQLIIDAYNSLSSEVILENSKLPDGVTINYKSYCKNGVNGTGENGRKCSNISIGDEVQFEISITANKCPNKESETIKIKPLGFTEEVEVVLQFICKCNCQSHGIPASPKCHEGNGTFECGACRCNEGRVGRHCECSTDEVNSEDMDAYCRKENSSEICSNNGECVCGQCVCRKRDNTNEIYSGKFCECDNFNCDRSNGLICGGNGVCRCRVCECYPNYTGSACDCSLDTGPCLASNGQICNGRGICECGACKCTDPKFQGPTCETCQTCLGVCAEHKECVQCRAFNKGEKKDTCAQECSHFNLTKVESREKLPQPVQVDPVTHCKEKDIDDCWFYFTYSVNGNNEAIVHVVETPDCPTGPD
human α11β1, sequence (P05556 21-728 partner limits assumed, one chain of several): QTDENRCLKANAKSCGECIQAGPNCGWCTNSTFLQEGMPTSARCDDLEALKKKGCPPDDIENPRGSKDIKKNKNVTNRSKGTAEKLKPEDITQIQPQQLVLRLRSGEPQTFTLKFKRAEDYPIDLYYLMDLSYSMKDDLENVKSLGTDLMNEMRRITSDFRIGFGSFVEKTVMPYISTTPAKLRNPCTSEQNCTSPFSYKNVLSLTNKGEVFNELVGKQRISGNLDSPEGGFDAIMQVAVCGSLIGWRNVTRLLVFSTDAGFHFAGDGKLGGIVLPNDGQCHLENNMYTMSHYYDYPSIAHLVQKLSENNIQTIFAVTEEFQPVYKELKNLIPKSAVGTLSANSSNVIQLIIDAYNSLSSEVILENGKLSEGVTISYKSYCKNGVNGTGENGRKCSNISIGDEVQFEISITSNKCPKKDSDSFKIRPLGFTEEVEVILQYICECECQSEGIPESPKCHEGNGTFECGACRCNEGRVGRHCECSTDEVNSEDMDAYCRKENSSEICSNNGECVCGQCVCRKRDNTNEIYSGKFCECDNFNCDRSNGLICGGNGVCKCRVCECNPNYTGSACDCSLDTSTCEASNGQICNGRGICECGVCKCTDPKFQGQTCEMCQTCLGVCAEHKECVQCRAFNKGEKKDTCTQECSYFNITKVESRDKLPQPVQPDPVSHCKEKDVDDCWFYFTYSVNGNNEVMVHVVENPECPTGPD

Human α11β1 ELISA (human α11β1)	Murine α11β1 ELISA (mouse α11β1)	Off Target (α1β1, α2β1 and/or α10β1)	CHO-K1 FACS [1]	Molecule
Yes	No	No	Yes	3B1: rabbit anti-α11β1 mAb; heavy chain SEQ ID NO: 201, light chain SEQ ID NO: 202 (antibody) heavy: METGLRWLLLVAVLKGVQCQEQLEESGGGLVKPEGSLTLTCKASGFDLSSGYDMCWVRQAPGKGLEWIACIYADYSGSTYYASWVNGRFTISSSTSLNTVDLKMTSLTAADTATYFCARGATGNGGYGYYFNLWGPGTLVTVSSGQPKAPSVFPLAPCCGDTPSSTVTLGCLVKGYLPEPVTVTWNSGTLTNGVRTFPSVRQSSGLYSLSSVVSVTSSSQPVTCNVAHPATNTKVDKTVAPSTCSKPMCPPPELPGGPSVFIFPPKPKDTLMISRTPEVTCVVVDVSQDDPEVQFTWYINNEQVRTARPPLREQQFNSTIRVVSTLPIAHQDWLRGKEFKCKVHNKALPAPIEKTISKARGQPLEPKVYTMGPPREELSSRSVSLTCMINGFYPSDISVEWEKNGKAEDNYKTTPTVLDSDGSYFLYSKLSVPTSEWQRGDVFTCSVMHEALHNHYTQKSISRSPGK light: MDTRAPTQLLGLLLLWLPGARCADIVMTQTPASVSEPVGGTVTIKCQASQNINSGLAWYQQKPGQPPKLLIYKASTLASGVSSRFKGSGSGTEFTLTISDLECADAATYYCQTYYYSSSSSDNAFGGGTEVVVKGDPVAPTVLIFPPAADQVATGTVTIVCVANKYFPDVTVTWEVDGTTQTTGIENSKTPQNSADCTYNLSSTLTLTSTQYNSHKEYTCKVTQGTTSVVQSFNRGDC
Yes	No	No	Yes	5A7: rabbit anti-α11β1 mAb; heavy chain SEQ ID NO: 193, light chain SEQ ID NO: 194 (antibody) heavy: METGLRWLLLVAVLKGVQCQSLEESGGGLVQPEGSLTLACTASGFSFSSYYYICWVRQAPGTGLEWIGCINTGSDDTHYASWLKGRFTFSKASSTTLTLQMTSLTAADTATYFCARSSGSSDDAYDLWGPGTLVTVSSGQPKAPSVFPLAPCCGDTPSSTVTLGCLVKGYLPEPVTVTWNSGTLTNGVRTFPSVRQSSGLYSLSSVVSVTSSSQPVTCNVAHPATNTKVDKTVAPSTCSKPMCPPPELPGGPSVFIFPPKPKDTLMISRTPEVTCVVVDVSQDDPEVQFTWYINNEQVRTARPPLREQQFNSTIRVVSTLPIAHQDWLRGKEFKCKVHNKALPAPIEKTISKARGQPLEPKVYTMGPPREELSSRSVSLTCMINGFYPSDISVEWEKNGKAEDNYKTTPTVLDSDGSYFLYSKLSVPTSEWQRGDVFTCSVMHEALHNHYTQKSISRSPGK light: MDTRAPTQLLGLLLLWLPGARCDVVMTQTPASVSEPVGGAVTIKCQASQSIGSNLAWYQHKPGQPPKLLIYFASSLASGVSSRFKGGRSGTQFTLTISDLECADAATYYCHCTYYPLSYVTFGGGTEVVVKGDPVAPTVLIFPPAADQVATGTVTIVCVANKYFPDVTVTWEVDGTTQTTGIENSKTPQNSADCTYNLSSTLTLTSTQYNSHKEYTCKVTQGTTSVVQSFNRGDC
Yes	Yes	No	No	10-L15: mouse anti-α11β1 mAb; VH SEQ ID NO: 119, VL SEQ ID NO: 120 (antibody, V domains shown) VH: QVQLQQSGPELVRPGASVKMSCKASGYTFTSYWMHWVKQRPGQGLEWIGMIDPSNSETWLNQKFKDKATLNVDKSSNTAYMQLSSLTSEDSAVYYCARYDGYYDYWGQGTTLTVSS VL: NIVLTQSPASLAVSLGQRATISCRASESVDSYGNSFMHWYQQKPGQPPKLLIYLASNVESGVPARFSGSGSRTDFTLTIDPVEADDAATYYCQQNNEDPWTFGGGTKLEIK
